Experiment [1] concerns the target T1, human FAP expressed on cells (human, UniProt Q12884 1-760).
T1 construct: also called human FAP cell surface protein; human FAP receptor
T1 sequence: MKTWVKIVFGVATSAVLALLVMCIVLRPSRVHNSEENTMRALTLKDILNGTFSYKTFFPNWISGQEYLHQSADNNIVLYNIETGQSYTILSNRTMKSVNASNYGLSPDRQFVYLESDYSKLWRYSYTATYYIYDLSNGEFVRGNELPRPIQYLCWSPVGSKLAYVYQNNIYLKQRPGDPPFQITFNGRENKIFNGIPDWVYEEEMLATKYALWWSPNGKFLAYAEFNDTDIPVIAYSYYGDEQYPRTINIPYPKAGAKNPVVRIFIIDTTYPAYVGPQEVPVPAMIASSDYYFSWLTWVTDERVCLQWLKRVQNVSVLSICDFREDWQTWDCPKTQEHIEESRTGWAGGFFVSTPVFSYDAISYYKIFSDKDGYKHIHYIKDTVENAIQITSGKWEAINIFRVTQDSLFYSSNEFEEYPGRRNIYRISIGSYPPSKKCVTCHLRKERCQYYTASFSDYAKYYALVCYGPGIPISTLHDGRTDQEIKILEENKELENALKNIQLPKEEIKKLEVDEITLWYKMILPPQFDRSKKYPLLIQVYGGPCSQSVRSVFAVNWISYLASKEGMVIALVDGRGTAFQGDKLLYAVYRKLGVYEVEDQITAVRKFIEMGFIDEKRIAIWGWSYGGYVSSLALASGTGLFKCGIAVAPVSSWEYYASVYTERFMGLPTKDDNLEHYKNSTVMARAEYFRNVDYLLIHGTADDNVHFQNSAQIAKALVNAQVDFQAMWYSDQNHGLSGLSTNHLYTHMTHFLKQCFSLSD
Nature of the experiment: saturation binding of 111In-DOTA-labelled untagged VHH B1 on human FAP-expressing GM05389 cells. The procedure:
Secondly, untagged human/murine FAP-crossreactive VHH B1 was radiolabeled with ¹¹¹In, after which its in vitro and in vivo diagnostic potential was evaluated. The binding potential of the resulting radio-conjugate was assessed to confirm that this was not affected by the conjugation of ¹¹¹In-DOTA to the amino acid sequence of the VHH. To this, human FAP-expressing GM05389 cells were incubated with serial dilutions with concentrations ranging from 0 to 33 nM of the ¹¹¹In-labelled VHHs. A 100-fold excess of the corresponding unlabeled VHH was added in parallel to saturate the human FAP receptors expressed on cancer cells, to assess non-specific binding.

Experiment [2] addresses T1, human FAP expressed on cells. As to the kind of experiment: saturation binding of 177Lu-DTPA-labelled untagged VHH B1 on human FAP-expressing GM05389 cells. As to the method:
(§1) In a first part, its in vitro behaviour was assessed by means of investigating its cellular binding and retention overtime. The binding potential of the resulting radioconjugates was assessed to confirm that this was not affected by the introduction of ¹⁷⁷Lu-DTPA into the amino acid sequence of the VHH. To this, human FAP-expressing GM05389 and HEK-293 cells were incubated with serial dilutions with concentrations ranging from 0 to 33 nM of ¹⁷⁷Lu-labeled untagged VHH B1. A 100-fold excess of the corresponding unlabeled VHH was added in parallel to saturate the human FAP receptors expressed on cancer cells, to assess non-specific binding.

Experiment [3] shares this target. As to the kind of experiment: saturation binding of 177Lu-DTPA-labelled untagged VHH B1 on human FAP-expressing HEK-293 cells. As to the method: as §1
The target is the same in experiment [4]. Nature of the experiment: saturation binding of 225Ac-DOTA-labelled untagged VHH B1 on human FAP-expressing GM05389 cells.
Experiment [5] addresses T2, murine FAP recombinant protein (murine, UniProt P97321 26-761).
T2 construct: The protein was biotinylated for bio-layer interferometry; also called extracellular domain of murine FAP with N-terminal His6-tag
T2 sequence: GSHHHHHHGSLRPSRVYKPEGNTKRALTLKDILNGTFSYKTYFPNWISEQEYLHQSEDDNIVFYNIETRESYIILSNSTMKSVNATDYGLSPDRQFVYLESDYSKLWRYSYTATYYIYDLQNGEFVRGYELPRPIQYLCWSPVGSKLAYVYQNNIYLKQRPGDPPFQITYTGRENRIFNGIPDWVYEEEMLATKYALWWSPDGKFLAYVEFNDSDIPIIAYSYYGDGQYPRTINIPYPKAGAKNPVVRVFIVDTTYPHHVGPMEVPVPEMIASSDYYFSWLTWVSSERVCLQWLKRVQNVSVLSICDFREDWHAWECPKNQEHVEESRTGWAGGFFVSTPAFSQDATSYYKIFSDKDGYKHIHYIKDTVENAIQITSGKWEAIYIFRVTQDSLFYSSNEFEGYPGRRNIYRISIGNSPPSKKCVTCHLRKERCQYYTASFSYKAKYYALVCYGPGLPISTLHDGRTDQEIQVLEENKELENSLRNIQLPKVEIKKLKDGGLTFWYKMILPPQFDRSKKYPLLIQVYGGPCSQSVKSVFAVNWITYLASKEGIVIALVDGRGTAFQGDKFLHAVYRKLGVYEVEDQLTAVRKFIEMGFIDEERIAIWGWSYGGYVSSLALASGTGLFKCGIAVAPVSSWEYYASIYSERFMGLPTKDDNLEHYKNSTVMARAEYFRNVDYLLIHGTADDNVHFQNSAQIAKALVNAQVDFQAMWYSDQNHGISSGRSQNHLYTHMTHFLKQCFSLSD
Nature of the experiment: ELISA, coated murine FAP recombinant protein, HA-His6-tagged VHH extract, anti-HA detection. The procedure:
(§2) The day before measurement, 0.1 μg recombinant protein at a concentration of 1 μg/mL in 100 mM NaHCO₃, pH 8.2 was coated in a 96-well ELISA plate (Nunc MaxiSorp). Per VHH clone also a blank coated well was foreseen (only buffer). The wells were overcoated with protein-free T20 (PBS) blocking buffer (Pierce). After washing with PBS, pH7.4, 0.05% Tween, VHH-containing bacterial freeze-thaw extract was added to every well. Binding of HA-His₆-tagged VHHs was detected by using mouse anti-HA.11 epitope tag (clone 16B12, Biolegend) as the primary Ab and goat anti-mouse IgG (whole molecule) alkaline phosphatase conjugate (Sigma-Aldrich) as the secondary Ab, with thorough washing with PBS, pH 7.4, 0.05% Tween in between. Signals were developed using phosphatase substrate (Sigma-Aldrich) in AP blot buffer (100 mM NaCl, 50 mM MgCl₂, 100 mM Tris, pH 9.5). The absorbance was determined at 405 nm using an absorbance microplate reader (Molecular Devices). Per clone the ratio was determined between the absorbance in the antigen-coated well versus the well without antigen.

Experiment [6] deals with T3, human FAP recombinant protein (human, UniProt Q12884 26-760).
T3 construct: The protein was biotinylated with sulfo-NHS-SS-biotin for bio-layer interferometry; also called extracellular domain of human FAP with N-terminal His6-tag
T3 sequence: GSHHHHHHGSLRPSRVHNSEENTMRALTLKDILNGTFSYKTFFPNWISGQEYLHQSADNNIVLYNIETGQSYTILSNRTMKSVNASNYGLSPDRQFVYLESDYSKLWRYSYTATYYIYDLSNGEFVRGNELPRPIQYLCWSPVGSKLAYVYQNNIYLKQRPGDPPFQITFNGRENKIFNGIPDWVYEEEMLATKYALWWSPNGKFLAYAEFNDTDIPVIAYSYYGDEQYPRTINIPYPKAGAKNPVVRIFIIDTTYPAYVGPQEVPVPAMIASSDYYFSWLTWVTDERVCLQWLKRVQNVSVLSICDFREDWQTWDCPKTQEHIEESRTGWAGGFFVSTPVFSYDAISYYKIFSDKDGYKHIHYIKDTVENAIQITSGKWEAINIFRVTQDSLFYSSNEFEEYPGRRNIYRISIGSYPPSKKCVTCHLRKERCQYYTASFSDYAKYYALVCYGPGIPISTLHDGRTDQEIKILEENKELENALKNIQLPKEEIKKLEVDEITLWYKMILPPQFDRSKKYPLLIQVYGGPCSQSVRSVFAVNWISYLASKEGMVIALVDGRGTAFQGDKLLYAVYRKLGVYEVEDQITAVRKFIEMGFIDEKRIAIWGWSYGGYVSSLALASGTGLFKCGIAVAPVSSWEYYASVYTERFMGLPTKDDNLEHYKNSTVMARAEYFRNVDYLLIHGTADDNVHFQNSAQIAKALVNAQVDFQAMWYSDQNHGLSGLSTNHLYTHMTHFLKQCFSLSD
Nature of the experiment: ELISA on coated recombinant protein, VHH-containing bacterial extract, anti-HA detection, signal-to-background ratio. The procedure:
as §2
(In an ELISA, binding on a coated surface is turned into a signal by an enzyme label.)

Experiment [7] addresses T1, human FAP expressed on cells. As to the kind of experiment: flow cytometry on human FAP-expressing GM05389 cells, VHH-containing bacterial extract, anti-HA and PE-conjugated secondary detection, Δmfi against cells without VHH. As to the method: The cell binding was tested by flow cytometry experiments. Per test condition 1×10⁵ to 2×10⁵ cells, washed in PBS, 0.5% BSA, were pelleted in the well of a 96-well U-bottom plate. The cell pellets were resuspended and incubated with the VHH-containing bacterial freeze-thaw extracts (diluted in PBS, 0.5% BSA). Binding of HA-His₆-tagged VHHs was detected by using mouse anti-HA.11 epitope tag (clone 16B12, Biolegend) as the primary detection antibody and PE-conjugated rat anti-mouse IgG1 (clone A85-1, BD Pharmingen) as the secondary detection antibody, with washing with PBS, 0.5% BSA in between, and finally resuspended in PBS, 0.5% BSA.
Flow cytometry was performed on a FACS Canto II (BD Biosciences). Data were analyzed using FlowJo software. Based on the forward scatter-side scatter plot a single cell gate was drawn. The median fluorescence intensity was determined on a histogram for the phycoerythrin signal of the single cells. The difference in median fluorescence intensity (A mfi) was calculated relative to a test condition without incubation of VHHs (cells+primary Ab+secondary Ab), and are shown in FIG. 3.
On the technique in general: A flow cytometer gives signals particle by particle.

Experiment [8] addresses T3, human FAP recombinant protein. Nature of the experiment: bio-layer interferometry (Octet RED96), biotinylated human FAP on streptavidin sensor, kinetic titration, 25 °C. As to the method:
(§3) The kinetic parameters of antigen binding by purified VHHs were determined via bio-layer interferometry with an Octet RED96 instrument (ForteBio). The assay was performed at 25° C. with shaking at 1000 rpm. Streptavidin coated SA sensors were equilibrated in assay buffer (HBS supplemented with 0.5% BSA, 0.1% Tween), before loading for 5 min with the biotinylated FAP recombinant protein at a concentration of 5 μg/ml. His₆-tagged VHHs were analyzed in a threefold serial dilution from 30 nM to 0.4 nM in assay buffer (except for VHH B3 binding murine FAP recombinant protein, for which a fivefold serial dilution from 1000 nM to 1.6 nM was employed). First the baseline was measured for 180 s in assay buffer, followed by 5 subsequent association phases of 180 s with the VHH preparations in increasing order of concentration, with 75 s intermediate dissociation phases in assay buffer in between, and a final dissociation phase in assay buffer of 30 min. In every assay a reference sensor loaded with FAP recombinant protein was included that was incubated in assay buffer during the association phases.
Binding curves were exported and analyzed using the BIAevaluation analysis software (GE Healthcare). First the y-axes of the different curves were aligned to the median of the last 5 s of the baseline measurement. Subsequently, the sensorgram of the reference sensor was subtracted from all other sensorgrams. The resulting binding curve was fitted using a general fit with the ‘kinetic titration with drift’ binding model (1:1 (antigen:analyte) model; Karlsson, R. et al (2006), Analyzing a kinetic titration series using affinity biosensors. Analytical Biochemistry 349: 136-147), with Rmax fitted global, RI local and drift set to 0.
Table 7 gives an overview of the kinetic parameters of antigen binding for His₆-tagged VHHs B1, B2, B3 and B4 (SEQ ID NO: 21-24), as determined by bio-layer interferometry with biotinylated human or murine FAP recombinant protein that was loaded on the sensor.
(BLI is a label-free optical method that tracks binding on a fibre tip over time.)

The target of experiment [9] is T2, murine FAP recombinant protein. As to the kind of experiment: bio-layer interferometry (Octet RED96), biotinylated murine FAP on streptavidin sensor. The procedure:
as §3
Binding curves were exported and analyzed using the BIAevaluation analysis software (GE Healthcare). First the y-axes of the different curves were aligned to the median of the last 5 s of the baseline measurement. […]

In general, EC50 refers to the midpoint of the concentration-response curve. A high value points to weaker potency. Usually Kd stands for the constant that tells how readily two partners part at equilibrium. By koff is commonly meant the rate constant with which the complex falls apart. As usually defined, the kon is the second-order rate constant of association.

B1: 111In-labeled untagged VHH B1 (VHH)
VHH: DVQLVESGGGLVQPGGSLRLSCVASGRLSSSNSMAWYRQVPGKRRELVAGITGGGETNYADFVGGRFTISRDNAKNGLYLQLNGLKPEDTAAYYCNFWPPLINYWGQGTQVTVSS
modifications: 111In-DOTA (p-SCN-Bn-DOTA) conjugated to lysine side-chain amines
With B1, the EC50 in [1] stood at 0.6 nM.

B2: 177Lu-labeled untagged VHH B1 (VHH)
VHH: B1 VHH
modifications: 177Lu-DTPA (p-SCN-Bn-CHX-A''-DTPA) conjugated to lysine side-chain amines
notes: also called 177Lu-B1; 177Lu-DTPA-VHH
Turning to B2, the EC50 in [2] was determined as 0.5 nM; in [3], 0.8 nM.

B3: 225Ac-labeled untagged VHH B1 (VHH)
VHH: B1 VHH
modifications: 225Ac-DOTA (p-SCN-Bn-DOTA) conjugated to lysine side-chain amines
notes: also called 225Ac-DOTA-VHH
Take B3: the EC50 in experiment [4] stood at 0.4 nM.

B4: HA-His6-tagged VHH B4 (VHH)
VHH: QVQLQESGGGLVQVGGSLRLSCVASGFTFSSYYMSWVRQAPGKGLEWVASIYADGDMTYYADSVRGRFTISRDNAKNTLYLQMNSLKSEDTAVYYCAKDPLPPYHVNQGTQVTVSS
notes: also called B4 with HA-His6-tag
In the case of B4, the signal-to-background ratio in experiment [5] is greater than 30. The binding result in experiment [6] and in experiment [7] was “no binding” throughout.

B5: His6-tagged VHH B3 (VHH)
VHH: DVQLVESGGGLVQAGGSLRLSCAVSGRLFSTNAMGWYRQAPGKQRELVAGITGGDRSNYADSVKGRFTISRDNGKNTLYLQMNSLKPEDTAVYYCNFYPPIVGDYWGQGTQVTVSS
notes: Purified, unlabelled; used in bio-layer interferometry; also called B3 with His6-tag
For the molecule B5, in experiment [8], the Kd was 0.16 nM, the koff amounted to 5.4e-05 s⁻¹ and the kon was 340000 M⁻¹ s⁻¹. Further, in experiment [9], the binding result is given as “no binding”.

The values above are taken from patent US20230381350A1 (PRECIRIX N V, published 2023).
